Reference: paper doi:10.1101/2020.08.19.257774 (bioRxiv, 2020)

Columns and labels:
cryo-EM structure = target: the molecule itself; assay: cryo-EM structure
negative stain EM = target: the molecule itself; assay: negative stain EM

B1: A. thaliana Light-dependent Protochlorophyllide OxidoReductase isoform B (AtPORB) (enzyme)
chain: QTAATSSPTVTKSVDGKKTLRKGNVVVTGASSGLGLATAKALAETGKWNVIMACRDFLKAERAAKSVGMPKDSYTVMHLDLASLDSVRQFVDNFRRTETPLDVLVCNAAVYFPTAKEPTYSAEGFELSVATNHLGHFLLARLLLDDLKKSDYPSKRLIIVGSITGNTNTLAGNVPPKANLGDLRGLAGGLNGLNSSAMIDGGDFDGAKAYKDSKVCNMLTMQEFHRRFHEETGVTFASLYPGCIASTGLFREHIPLFRALFPPFQKYITKGYVSETESGKRLAQVVSDPSLTKSGVYWSWNNASASFENQLSEEASDVEKARKVWEISEKLVGLA
B1: binds (cryo-EM structure).

B2: Synechocystis LPOR (enzyme, UniProt Q59987 1-322, looked up)
chain: MEQPMKPTVIITGASSGVGLYGAKALIDKGWHVIMACRNLDKTQKVADELGFPKDSYTIIKLDLGYLDSVRRFVAQFRELGRPLKALVCNAAVYFPLLDEPLWSADDYELSVATNHLGHFLLCNLLLEDLKACPDADKRLIILGTVTANSKELGGKIPIPAPPDLGNFEGFEAGFKKPIAMINNKKFKSGKAYKDSKLCNMLTTRELHRRFHQETGIVFNSLYPGCVADTPLFRNHYSLFRTIFPWFQKNVTKGYVSQELAGERVAMVVADDKFKDSGVHWSWGNRQQAGREAFVQELSEQGSDAQKAQRMWDLSEKLVGLV
B2: binds (negative stain EM).
